Measured values taken from IntAct's records for PubMed 20453860.

B1: Vacuolar protein sorting-associated protein 33 (Saccharomyces cerevisiae), P20795 (parent)
chain: MNRFWNTKKFSLTNADGLCATLNEISQNDEVLVVQPSVLPVLNSLLTFQDLTQSTPVRKITLLDDQLSDDLPSALGSVPQMDLIFLIDVRTSLRLPPQLLDAAQKHNLSSLHIIYCRWKPSFQNTLEDTEQWQKDGFDLNSKKTHFPNVIESQLKELSNEYTLYPWDLLPFPQIDENVLLTHSLYNMENVNMYYPNLRSLQSATESILVDDMVNSLQSLIFETNSIITNVVSIGNLSKRCSHLLKKRIDEHQTENDLFIKGTLYGERTNCGLEMDLIILERNTDPITPLLTQLTYAGILDDLYEFNSGIKIKEKDMNFNYKEDKIWNDLKFLNFGSIGPQLNKLAKELQTQYDTRHKAESVHEIKEFVDSLGSLQQRQAFLKNHTTLSSDVLKVVETEEYGSFNKILELELEILMGNTLNNDIEDIILELQYQYEVDQKKILRLICLLSLCKNSLREKDYEYLRTFMIDSWGIEKCFQLESLAELGFFTSKTGKTDLHITTSKSTRLQKEYRYISQWFNTVPIEDEHAADKITNENDDFSEATFAYSGVVPLTMRLVQMLYDRSILFHNYSSQQPFILSREPRVSQTEDLIEQLYGDSHAIEESIWVPGTITKKINASIKSNNRRSIDGSNGTFHAAEDIALVVFLGGVTMGEIAIMKHLQKILGKKGINKRFIIIADGLINGTRIMNSIS
partner: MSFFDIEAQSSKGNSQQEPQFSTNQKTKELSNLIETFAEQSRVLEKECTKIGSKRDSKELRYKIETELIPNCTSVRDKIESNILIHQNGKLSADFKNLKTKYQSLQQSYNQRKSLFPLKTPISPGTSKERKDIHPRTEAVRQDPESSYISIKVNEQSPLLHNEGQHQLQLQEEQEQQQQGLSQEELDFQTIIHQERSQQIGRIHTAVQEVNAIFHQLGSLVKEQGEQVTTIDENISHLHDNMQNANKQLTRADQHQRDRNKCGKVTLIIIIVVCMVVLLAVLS

Variants of: B1
Details: with vam3_yeast VAM3, Q12241

effect of a mutation on the interaction	Variant
decreasing interaction	D88K
decreasing interaction	L184P
